Starred links: 1 amine or outer side, 2 acyl side, 3 side chain; linkers in the order of their positions; H or OH if unused. Positions of bridges follow the written chain, without caps; N, C: chain ends. Non-standard residues stand in square brackets, D forms with d. Primed or numbered codes have the meaning given here. B5(16) = 2-amino-2-(pent-4-en-1-yl)hept-6-enoic acid = 2,2-bis(4-pentenyl)glycine (stitching residue), C=CCCCC(CCCC=C)(N[*:1])C(=O)[*:2]; B5(9) = 2-amino-2-(pent-4-en-1-yl)hept-6-enoic acid (2,2-bis(4-pentenyl)glycine), C=CCCCC(CCCC=C)(N[*:1])C(=O)[*:2]; B5(19) = 2-amino-2-(pent-4-en-1-yl)hept-6-enoic acid (bis(4-pentenyl)glycine), C=CCCCC(CCCC=C)(N[*:1])C(=O)[*:2]; d(βAsp) = O=C(O)[C@@H](CC(=O)[*:2])N[*:1]; βAsp = O=C(O)[C@H](CC(=O)[*:2])N[*:1]; Bta = N[C@@H](Cc1csc2ccccc12)C(=O)O; αAllylPro = C=CC[C@@]1(C(=O)O)CCCN1; S8 = C=CCCCCCC[C@](C)(N)C(=O)O
T1: full-length beta-Catenin (Uniprot ID P35222) (Homo sapiens (Human), UniProt P35222 2-781)
T1 construct: 'mature' is the nearest allowed form; also called bCat; B-Catenin
T1 sequence: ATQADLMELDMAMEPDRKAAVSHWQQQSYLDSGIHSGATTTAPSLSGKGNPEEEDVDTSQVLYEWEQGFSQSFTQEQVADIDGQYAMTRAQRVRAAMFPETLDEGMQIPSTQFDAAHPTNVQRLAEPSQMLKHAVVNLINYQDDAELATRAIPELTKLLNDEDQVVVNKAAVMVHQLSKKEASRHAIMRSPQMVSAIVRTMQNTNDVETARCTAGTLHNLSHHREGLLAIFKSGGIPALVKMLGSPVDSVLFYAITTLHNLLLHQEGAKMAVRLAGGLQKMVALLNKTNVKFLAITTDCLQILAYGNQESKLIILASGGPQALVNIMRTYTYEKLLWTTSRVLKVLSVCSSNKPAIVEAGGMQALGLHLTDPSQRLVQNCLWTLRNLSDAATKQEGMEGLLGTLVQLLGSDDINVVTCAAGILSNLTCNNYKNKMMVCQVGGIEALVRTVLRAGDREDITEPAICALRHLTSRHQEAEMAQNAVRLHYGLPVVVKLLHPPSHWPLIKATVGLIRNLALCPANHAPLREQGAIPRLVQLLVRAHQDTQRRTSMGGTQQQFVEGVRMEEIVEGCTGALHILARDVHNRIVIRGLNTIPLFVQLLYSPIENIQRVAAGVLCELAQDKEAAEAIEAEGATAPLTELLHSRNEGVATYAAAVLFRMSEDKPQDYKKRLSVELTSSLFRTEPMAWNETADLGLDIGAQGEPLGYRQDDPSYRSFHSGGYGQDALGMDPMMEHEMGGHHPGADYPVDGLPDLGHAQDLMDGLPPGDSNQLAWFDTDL


target: T1, full-length beta-Catenin (Uniprot ID …); assay: fluorescence polarization competition, full-length beta-catenin with 5FAM-TCF4(10-53) probe as competitor
Experimental: The plate was incubated protected from light for 60 minutes at 20° C. prior to read. Reads were performed on a CLARIOstar plate reader (BMG Labtech) in duplicate, and data were fitted to a 1:1 binding model with hill slope using an in-house script. All provided concentrations are final concentrations.

| EC50 [nM] | Binder |
| --- | --- |
| 5000 | Ac-[αAllylPro]DI[B5(9)][βAsp]EAAFQ[S8]F[Bta]Q-NH2 (staple 1-4, 4-11, Stapled peptide composition) [I-673] |
| 675 | Ac-[αAllylPro][d(βAsp)]I[B5(9)]DEAAFQ[S8]F[Bta]Q-NH2 (staple 1-4, 4-11, Stapled peptide composition; earlier-eluting HPLC peak (staple isomer)) [I-668] |
| 43 | Ac-[αAllylPro]DI[B5(19)]DEAQFQ[S8]F[Bta]Q-NH2 (staple 1-4, 4-11, Stapled peptide composition) [I-663] |
| 45 | XDIXDEASFQXFXQ (not fully specified; As printed: Ac-PL3-Asp-Ile-B5-Asp-Glu-Ala-Ser-Phe-Gln-S8-Phe-BztA-Gln-NH2; N-terminal Ac; PL3 at 1, B5 at 4, S8 at 11 (stapled 1-4 and 4-11); BztA at 13; C-terminal NH2, Stapled peptide composition; earlier-eluting HPLC peak (staple isomer)) [I-661] |
| 72 | Ac-[αAllylPro]DI[B5(16)]DESAFQ[S8]F[Bta]Q-NH2 (staple 1-4, 4-11, Stapled peptide composition; later-eluting HPLC peak (staple isomer)) [I-652] |
| 183 | Ac-[αAllylPro]DI[B5(16)]DEWAFQ[S8]F[Bta]Q-NH2 (staple 1-4, 4-11, Stapled peptide composition) [I-655] |
| 546 | XDIXDEALFQXFXQ (not fully specified; As printed: Ac-PL3-Asp-Ile-B5-Asp-Glu-Ala-Leu-Phe-Gln-S8-Phe-BztA-Gln-NH2; N-terminal Ac; PL3 at 1, B5 at 4, S8 at 11 (stapled 1-4 and 4-11); BztA at 13; C-terminal NH2, Stapled peptide composition; earlier-eluting HPLC peak (staple isomer)) [I-658] |
| 461 | Ac-[αAllylPro]DI[B5(9)]DEAAFQ[S8]F[Bta]V-NH2 (staple 1-4, 4-11, Stapled peptide composition; later-eluting HPLC peak (staple isomer)) [I-646] |
| 544 | Ac-[αAllylPro]DI[B5(19)]DEAFFQ[S8]F[Bta]Q-NH2 (staple 1-4, 4-11, Stapled peptide composition) [I-660] |
| 186 | Ac-[αAllylPro]DI[B5(16)]DESAFQ[S8]F[Bta]Q-NH2 (staple 1-4, 4-11, Stapled peptide composition; earlier-eluting HPLC peak (staple isomer)) [I-651] |
| 430 | XDIXDEALFQXFXQ (not fully specified; As printed: Ac-PL3-Asp-Ile-B5-Asp-Glu-Ala-Leu-Phe-Gln-S8-Phe-BztA-Gln-NH2; N-terminal Ac; PL3 at 1, B5 at 4, S8 at 11 (stapled 1-4 and 4-11); BztA at 13; C-terminal NH2, Stapled peptide composition; later-eluting HPLC peak (staple isomer)) [I-659] |
| 137 | Ac-[αAllylPro]DI[B5(16)]DEFAFQ[S8]F[Bta]Q-NH2 (staple 1-4, 4-11, Stapled peptide composition; later-eluting HPLC peak (staple isomer)) [I-650] |
| 233 | Ac-[αAllylPro]DI[B5(9)]DELAFQ[S8]F[Bta]Q-NH2 (staple 1-4, 4-11, Stapled peptide composition; later-eluting HPLC peak (staple isomer)) [I-648] |
| 923 | Ac-[αAllylPro]DI[B5(9)]DEAWFQ[S8]F[Bta]Q-NH2 (staple 1-4, 4-11, Stapled peptide composition; later-eluting HPLC peak (staple isomer)) [I-665] |
| 395 | Ac-[αAllylPro]DI[B5(9)]DEAAFQ[S8]F[Bta]V-NH2 (staple 1-4, 4-11, Stapled peptide composition) [I-645] |
| 209 | Ac-[αAllylPro]DI[B5(9)]DEFAFQ[S8]F[Bta]Q-NH2 (staple 1-4, 4-11, Stapled peptide composition; earlier-eluting HPLC peak (staple isomer)) [I-649] |

From patent publication US20240116985A1 (published 2024)
